From the supplement of paper PMC10126150
± gives the standard deviation of the averaged measurements.

tested on: ATP; test: switch fluorescence ratio, 500 uM ATP over buffer (Cy3 cluster intensity, sum of 5 cycles each) (fold (ratio)); higher = stronger signal-on switching upon ATP binding; sequences stand for … in TCGTCGGCAGCGTCAGATGTGTATAAGAGACAGTTTTTTTTTTTTTTTTTTTTTTTTT…TC; details: aptamer strand: ATP DNA aptamer (quencher-CACCTGGGGGAGTATTGCGGAGGAAGG + anchor), 100 nM annealed; ATP concentration: 500 uM
In short: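 Switching-strand clusters labelled with Cy3 on a modified Illumina MiSeq flow-cell were annealed to 100 nM quencher-labelled ATP aptamer, imaged in selection buffer, and re-imaged after 15 min with 500 uM ATP at 22 °C. This was done over five cycles with NaOH stripping and re-annealing in between. The fluorescence ratio is summed target-cycle over summed buffer-cycle Cy3 intensity per cluster, averaged per switch-domain sequence, excluding clusters outside 100-1000 RFU.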
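Note: ATP exposure 15 min at 22 °C before imaging.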

First: TCTAGATAAA
Second: TCGAGCGCAC
The switch fluorescence ratio of the first is lower: 1.04 ± 0.052 for the first, 2.54 ± 0.34 for the second.

ATGTTGGGCG and AGAACTTTTT are within error of each other in switch fluorescence ratio: 0.996 ± 0.052 for the first, 0.98 ± 0.011 for the second.

TTTTTTGTCC and TATGGGTCTC are within error of each other in switch fluorescence ratio: 1.01 ± 0.018 for the first, 0.973 ± 0.049 for the second.

GGGGAAAGGG and TTTTCGTTCG are within error of each other in switch fluorescence ratio: 1 ± 0.034 for the first, 1.01 ± 0.059 for the second.

Going from ATATCAGACT to ACCCACGGAG, the switch fluorescence ratio rises from 0.99 ± 0.015 to 1.17 ± 0.014.

ACATAGTCGA and ATTCTGGGGG are within error of each other in switch fluorescence ratio: 1.03 ± 0.045 for the first, 1.04 ± 0.048 for the second.

GCGAGAATGT and AAACAAACCC are within error of each other in switch fluorescence ratio: 0.9879 ± 0.0039 for the first, 1.01 ± 0.042 for the second.

GTTCTGAGGT and AGATTTTGCG are within error of each other in switch fluorescence ratio: 1 ± 0.0014 for the first, 0.991 ± 0.01 for the second.

ACGTTCAGGG and TGGGTCCAAA are within error of each other in switch fluorescence ratio: 1.05 ± 0.059 for the first, 1.006 ± 0.0076 for the second.

Compared with CAACTTTACC, AATACCAAGA is lower in switch fluorescence ratio: 1.16 ± 0.027 for the first, 0.9889 ± 0.0067 for the second.

AGTCTGGTCC and TTTTAAAAAT are within error of each other in switch fluorescence ratio: 0.987 ± 0.01 for the first, 1.03 ± 0.056 for the second.

CTTCTTAGTT and TAAGTATTG are within error of each other in switch fluorescence ratio: 0.976 ± 0.019 for the first, 1.01 ± 0.017 for the second.

Going from AGTTGACGGG to GGCATGGGTT, the switch fluorescence ratio falls from 1.03 ± 0.0082 to 1 ± 0.019.

AATTGTTGGC and TATACGACTT are within error of each other in switch fluorescence ratio: 0.999 ± 0.035 for the first, 1.03 ± 0.029 for the second.

AATTTCGGAG and TAAGGACGGA are within error of each other in switch fluorescence ratio: 1.02 ± 0.026 for the first, 1.01 ± 0.071 for the second.

GGGAATAACG and CGTATCAGGG are within error of each other in switch fluorescence ratio: 0.972 ± 0.058 for the first, 1.01 ± 0.032 for the second.

AGTAGGACTC and TAGTGCGATT are within error of each other in switch fluorescence ratio: 1.01 ± 0.013 for the first, 1.02 ± 0.015 for the second.

GCGACGAGTA and CGTCCTAGGG are within error of each other in switch fluorescence ratio: 1.074 ± 0.004 for the first, 1.04 ± 0.043 for the second.

AAAGGTTTTC and TTTTGGTGCT are within error of each other in switch fluorescence ratio: 0.9804 ± 0.0084 for the first, 1.01 ± 0.03 for the second.

AGTGCGGGTC and TTCTTTAGAG are within error of each other in switch fluorescence ratio: 1.02 ± 0.012 for the first, 0.987 ± 0.055 for the second.

TTGTTATAGA and ATAGGCGTTT are within error of each other in switch fluorescence ratio: 0.998 ± 0.024 for the first, 0.975 ± 0.018 for the second.

TGTTGATAGC and ATGATCAACG are within error of each other in switch fluorescence ratio: 0.992 ± 0.037 for the first, 0.999 ± 0.015 for the second.

Compared with CGCCTTTTAT, TACTCTGTGT is higher in switch fluorescence ratio: 0.98204 ± 0.00038 for the first, 1.01 ± 0.014 for the second.

GGTTTCGAAT and TAAGTACTTT are within error of each other in switch fluorescence ratio: 0.98 ± 0.049 for the first, 0.977 ± 0.025 for the second.

Going from GGGGGAATAC to GGAATGTGGT, the switch fluorescence ratio falls from 2.26 ± 0.5 to 1.027 ± 0.002.

CGATACCTTT and GGATAATGGC are within error of each other in switch fluorescence ratio: 1.003 ± 0.0086 for the first, 0.94 ± 0.059 for the second.

CTGGTTATAG and ATTGGAAAGG are within error of each other in switch fluorescence ratio: 0.989 ± 0.028 for the first, 0.985 ± 0.031 for the second.

TAGGAGGGGG and GCCATATTGG are within error of each other in switch fluorescence ratio: 0.995 ± 0.04 for the first, 0.9715 ± 0.0077 for the second.

Compared with GACCATGTAC, GCACATGAGA is lower in switch fluorescence ratio: 1.48 ± 0.1 for the first, 1.02 ± 0.021 for the second.

GCATGGCCTA and TCAGCTGGGA are within error of each other in switch fluorescence ratio: 0.997 ± 0.021 for the first, 1 ± 0.026 for the second.

CTTGGGTAGG and GACCCCGATT are within error of each other in switch fluorescence ratio: 1.01 ± 0.035 for the first, 1.05 ± 0.022 for the second.

First: GATCTCAGAG
Second: TTAAGTGCTG
The switch fluorescence ratio of the first is lower: 0.967 ± 0.014 for the first, 1.02 ± 0.036 for the second.

GAGGGTTGTG and GATCATTAGA are within error of each other in switch fluorescence ratio: 0.969 ± 0.031 for the first, 1.05 ± 0.061 for the second.

First: CGGGACTGTT
Second: ATGATACCTT
The switch fluorescence ratio of the first is lower: 1.02 ± 0.059 for the first, 1.17 ± 0.019 for the second.

Going from CTCTGGGCTT to ATATGGGCGG, the switch fluorescence ratio falls from 0.99826 ± 8.3e-05 to 0.98 ± 0.016.

GGCTCAACGA and AAAATAATTA are within error of each other in switch fluorescence ratio: 1.01 ± 0.045 for the first, 0.981 ± 0.012 for the second.

GGTACTACCG and GCTGTTGGCA are within error of each other in switch fluorescence ratio: 1.03 ± 0.044 for the first, 1.01 ± 0.025 for the second.

Compared with TTTCCTTGCC, GCAAAGGGGG is lower in switch fluorescence ratio: 1.19 ± 0.024 for the first, 0.9758 ± 0.006 for the second.

TTTAGAAAGG and GCAGTTAAAC are within error of each other in switch fluorescence ratio: 1 ± 0.025 for the first, 1.04 ± 0.045 for the second.

CTAATGGGTG and GTTATACGGG are within error of each other in switch fluorescence ratio: 1.02 ± 0.02 for the first, 1.01 ± 0.024 for the second.

Compared with TCATAAAGTT, ATAAGGTCGC is lower in switch fluorescence ratio: 0.994 ± 0.034 for the first, 0.927 ± 0.021 for the second.

TTATCGCTTA and ATAAGGTTCC are within error of each other in switch fluorescence ratio: 1.04 ± 0.098 for the first, 1.091 ± 0.005 for the second.

AAAGTCATCT and ACATGGGCGT are within error of each other in switch fluorescence ratio: 0.995 ± 0.023 for the first, 0.977 ± 0.036 for the second.

Compared with TCTAAAAGAT, TAGTTTATGT is higher in switch fluorescence ratio: 0.9771 ± 0.0026 for the first, 1.012 ± 0.0056 for the second.

GTGTTAGTAC and ACGGTGAGGT are within error of each other in switch fluorescence ratio: 0.984 ± 0.056 for the first, 1.02 ± 0.016 for the second.

AACCAGCGGA and GCGTTATTTG are within error of each other in switch fluorescence ratio: 0.994 ± 0.019 for the first, 0.9878 ± 0.0073 for the second.

Compared with CGGGCTATCC, AGTTAAGATA is lower in switch fluorescence ratio: 1.03 ± 0.03 for the first, 0.9907 ± 0.0031 for the second.

GTAAGGGGTT and GCCGGGGACA are the same in switch fluorescence ratio: 1.033 ± 0.0064 for the first, 1.03 ± 0.053 for the second.

TAAACTTTTG and TTGTGGAATT are within error of each other in switch fluorescence ratio: 0.9786 ± 0.0039 for the first, 0.966 ± 0.02 for the second.

AGATTTGGTT and TGTTTGAGGG are within error of each other in switch fluorescence ratio: 1.01 ± 0.032 for the first, 1.02 ± 0.024 for the second.
